From the supplement of paper PMC9170038

Tested on: MS2 coat protein
Assay: apparent KD of MS2 coat protein; designed switch direction (-1 OFF switch, 1 ON switch): 1; higher = weaker reporter binding
In short: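 The reported apparent KD is a per-design median over clusters, from curve fits of normalised cluster fluorescence. Protein titrations used SNAP-549-labelled MS2 coat protein, doubled from 0.7 or 1.5 nM to 3 µM, in Tris-HCl pH 7.5 buffer with KCl, MgCl2, BSA, DTT, tRNA and Tween-20, with no input, 200 uM small-molecule ligand, or an oligonucleotide input. The RNA switches were transcribed on Illumina chips by stalled E. coli RNA polymerase.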

[1] = input ligand: microRNA oligo, concentration not stated
[2] = Eterna round: R95, input ligand: FMN 200 uM
[3] = Eterna round: R95, input ligand: microRNA oligo, concentration not stated
[4] = Eterna round: R95, input ligand: none

Row | Sequence | apparent KD of MS2 coat protein (input ligand: FMN 200 uM) [nM] | apparent KD of MS2 coat protein [1] [nM] | apparent KD of MS2 coat protein (input ligand: none) [nM] | apparent KD of MS2 coat protein [2] [nM] | apparent KD of MS2 coat protein [3] [nM] | apparent KD of MS2 coat protein [4] [nM]
1 | GUUACAUGAGGAUCACCCAUGUAUGUGUGGGAGUAAGUGUCUUAGGAUAUCUAGUAUUUAAUGUAAGAGAAGGAAGAUUGUUGU [JMF's solution 64] (Eterna round: R96, puzzle: Same State NG 3) | 130 | 106 | 96.1 | – | – | –
2 | GUUACAUGAGGAUCACCCAUGUAUGUGUGGGAGUAAGUGUCUUAGGAUAUCUGUUAUUUAAAUUAAGAGAAGGAAGAUUGUUGU [JMF's solution 8] (Eterna round: R96, puzzle: Same State NG 3) | 120 | 89.2 | 110 | – | – | –
3 | GUUACAUGAGGAUCACCCAUGUAUGUGUGGGAGUAAGUGUCUUAGGAUAUCUGUUAUUUAAUUCAAGAGAAGGAAGAUUGUUGU [JMF's solution 46] (Eterna round: R96, puzzle: Same State NG 3) | 94.6 | 79.1 | 93.7 | – | – | –
4 | GUUACAUGAGGAUCACCCAUGUAUGUGUGGGAGUAAGUGUCUUAGGAUAUCUGUUAUUUUAUUUAAGAGAAGGAAGAUUGUUGU [JMF's solution 39] (Eterna round: R96, puzzle: Same State NG 3) | 133 | 68.9 | 80.7 | – | – | –
5 | GUUCGUUUGAUAGGAUAUCGCUUAACAUGAGGAUCACCCAUGUUUACCACGCUGGUUUUUCGUACCGAGAAGGAUUCUGAUGAU [JL JR sub007 mod 1] (Eterna round: R96, puzzle: Same State NG 2) | 37.9 | 43.6 | 47.1 | – | – | –
6 | UAAAAGAAUUAAGGAUAUUGAAUACAUAUGUUUAACAUGAGGAUCACCCAUGUGGGUUGCGGUAUCGAGAAGGUAAAAUAAUAG [Mat - Same State NG 2 - JL mod - D6] (Eterna round: R96, puzzle: Same State NG 2) | 163 | 110 | 151 | – | – | –
7 | UAACAACAUAUAGAACAAGCGUGCUCGUCACAUGAGGAUCACCCAUGUCUAAGCGCUGUACCUACAUCCUCAGCGCC [Raononbeen] (puzzle: Sensor for hsa-mir-208a) | – | – | – | 105 | 29.2 | 96.4
8 | UAAGUAUGUUGAGGAUAUUAUGUCAAGAGAGAUGACAUGAGGAUCACCCAUGUGUGAAGAGGAUUUAAGAAGGCAACAUACUUA [JR_SSNG2_Sub090] (Eterna round: R96, puzzle: Same State NG 2) | 39.9 | 47.7 | 66.7 | – | – | –
9 | UAAUUAAGUCAAGGAUAUCACGUCGUUUAGACGUGAGAAGGUGAUUAAUACAUGAGGAUCACCCAUGUAAUACAUGAAUAAUUA [SSNG1/11-B3] (Eterna round: R96, puzzle: Same State NG 1) | 51.3 | 59.5 | 64.5 | – | – | –
10 | UACAAUCUAUCUGAGGAUAUCAUGAAGAAAACAUGAGGAUCACCCAUGUGCAGGAUAACUGCAAAUGAGAAGGCAGAUAGAUUGU [Mat - Same State 2 - Mod - D5] (puzzle: Same State 2) | – | – | – | 8.19 | 18.5 | 18
11 | UACAAUCUAUCUGAGGAUAUCAUGAUAAUAACAUGAGGAUCACCCAUGUGCAGGAAAACUGCAUAUGAGAAGGCAGAUAGAUUGA [Mat - Same State 2 - Mod - D13] (puzzle: Same State 2) | – | – | – | 89.9 | 93.1 | 417
12 | UACUAUCUAUCUCAGGAUAUCAUGUCAAAGACAUGAGGAUCACCCAUGUACCAGGAAACUGGUUAUGAGAAGGGAGAUAGAUAGA [Mat - Same State 2 - Mod - D39] (puzzle: Same State 2) | – | – | – | 98.2 | 45.1 | 234
13 | UAGAAACAUGAGGAUCACCCAUGUGUCAAAGACAUAGGAUAUCGUAACCGGCGCCGAAUACGAGAAGGGUGGUAAA [Arares] (puzzle: Same State 1) | – | – | – | 183 | 74.9 | 166
14 | UAGAAACAUGAGGAUCACCCAUGUGUCAAAGACAUAGGAUAUCGUGACCGGCGCCGGACACGAGAAGGGUGGUAAA [Quingees] (puzzle: Same State 1) | – | – | – | 387 | 209 | 386
15 | UAGAGAGGAAGCGAGGAUAUCGUGGGAGGAACAUGAGGAUCACCCAUGUGUGAUGUUGAGAGGGACGAGAAGGCGCGGGAAAUUA [JR_SS2_Sub080] (puzzle: Same State 2) | – | – | – | 176 | 160 | 175
16 | UAGCUUGUGGUAGGAUAUCUAGGAUAUGGGAAGAGCUAAGCUUGGAAGUCACUUCACCCAGAAGGAGAGAAGGACCAGAGGCUU [pwkr ssNG2 2FMN + F9.6] (Eterna round: R96, puzzle: Same State NG 2) | 218 | 73.6 | 262 | – | – | –
17 | UAGUGCGUUAGAGGAUAUUCAAGGUGAAAAAAAAAUACAUGAGGAUCACCCAUGUAAAAACAUGAGGAGAAGGCUGAUGUGCUA [Omei SS(NG)2 A] (Eterna round: R96, puzzle: Same State NG 2) | – | 38 | – | – | – | –
18 | UAGUGCGUUAGAGGAUAUUCUAAAUAAAAUAAUAAGACAUGAGGAUCACCCAUGUAUGUACAUGGGAAGAAGGCUGAUGUGCUA [Omei SS(NG)2 Bv2] (Eterna round: R96, puzzle: Same State NG 2) | – | 342 | – | – | – | –
19 | UAUCCAUAGAUAGGAUAUCAGUAUACAUGAGGAUCACCCAUGUUCUAUUUGGUUUUAAUUUAUUCUGAGAAGGAUCUUGAUGAA [SameState NG2 #1] (Eterna round: R96, puzzle: Same State NG 2) | 13.8 | 16.4 | 17.6 | – | – | –
20 | UAUCCAUAGAUAGGAUAUUAGAGAACAUGAGGAUCACCCAUGUUUGGCUUGGUUUUAAGCUAAUCUGAGAAGGAUCUUGAUGAA [SameState NG2 #8] (Eterna round: R96, puzzle: Same State NG 2) | 85.5 | 185 | 119 | – | – | –
21 | UAUCCAUAGAUAGGAUAUUAGUGAACAUGAGGAUCACCCAUGUUUUGCUUGGUUUUAAGCUAAUCUGAGAAGGAUCUUGAUGAA [SameState NG2 #6] (Eterna round: R96, puzzle: Same State NG 2) | 31.5 | 33.3 | 41.6 | – | – | –
22 | UCAAGCGAGAGGCUCGUCUUAUGUUUGGUACAUGAGGAUCACCCAUGUUAGGGACGAUUUAGUUAGAUGGAAUUUUG [JR_SHM208A_Sub035] (puzzle: Sensor for hsa-mir-208a) | – | – | – | 48.5 | 269 | 65.7
23 | UCAGUCAUGUAAGGAUAUGCAGCCGUUUCGGCUGCAGAAGGUACUAUAAUUACAUGAGGAUCACCCAUGUUAUAAAAUUUAUAU [JL SSNG1 1.25] (Eterna round: R96, puzzle: Same State NG 1) | – | 38.8 | – | – | – | –
24 | UCCGCUAUCUAGAAGGAUAUGCGUAUAUAAACAUGAGGAUCACCCAUGUACCGGCGAAAACCGGUGCAGAAGGUUUAGCUAGUGA [Rediin] (Eterna round: R96, puzzle: Same State 2) | 69.8 | 298 | 359 | – | – | –
25 | UCCGCUAUCUAGAAGGAUAUGCGUAUAUAAACAUGAGGAUCACCCAUGUACCGGCGAAAACCGGUGCAGAAGGUUUAGCUAGUGA [Rediin] (puzzle: Same State 2) | – | – | – | 42.3 | 273 | 502
26 | UCUUGGUUUUUGCUCGUUUUUUGUGUUGAACAUGAGGAUCACCCAUGUAUUGUACAAUCCAGUUUGAUAAUGGUCCA [Mod of one of JR's submissions] (puzzle: Sensor for hsa-mir-208a) | – | – | – | 80.2 | 77.6 | 102
27 | UCUUGGUUUUUGCUCGUUUUUUGUGUUGAACAUGAGGAUCACCCAUGUAUUGUACAGUCCGGUUUAGUGAUGGUCCG [JMF 58] (puzzle: Sensor for hsa-mir-208a) | – | – | – | 40.2 | 32.6 | 45
28 | UCUUGGUUUUUGCUCGUUUUUUGUGUUGAACAUGAGGAUCACCCAUGUAUUGUACGGUCCAAUUUAAUAAUAAUCCA [JMF 74] (puzzle: Sensor for hsa-mir-208a) | – | – | – | 59 | 57.1 | 82.1
